Consider 167 variants from the RNAGym collection of RNA variant scans (doi:10.7554/elife.80360).

To fix the notation:
B1: CPEB3 Ribozyme (parent)
chain: GGGGGCCACAGCAGAAGCGUUCACGUCGCGGCCCCUGUCAGAUUCUGGUGAAUCUGCGAAUUCUGCUGU

Variants of B1 are the subject of the data set. The data set is described as follows: self-cleavage, relative activity (ratio to wild type); higher = more cleavage; co-transcriptional.
Turning to G14A U61C, the self-cleavage came to 0.246. Next, A15G G28C: 0.165. On to G14U U46G, for which the self-cleavage is 0.871. In the case of A15C G68A, the self-cleavage was determined as 0.966. Next, G14U U43A: 0.321; G14A G47A: 0.826; G14C G17U: 0.138. Consider G14A U21A, for which the self-cleavage is 0.646. For G14A U21C, the self-cleavage stood at 0.413.

Consider G14A U21G, for which the self-cleavage was 0.121. As for A15C U43A, the self-cleavage was 0.459.

As to A15C U43G, the self-cleavage was found to be 0.491. A15C G31U: the self-cleavage was found to be 0.241.

As for A15G U43G, the self-cleavage was found to be 0.779. Next, A15G U43A: 0.851. For the variant A15U A16G, the self-cleavage amounted to 0.56. Next, A16C C66U: 0.203; A15U G28A: 0.161. On to A15C G25C, for which the self-cleavage is 0.186. A15C G25U: the self-cleavage turned out to be 0.192. Regarding A15G A40U, the self-cleavage worked out at 0.851.

Consider A15G A40C, for which the self-cleavage is 0.631. As to A15U U67C, the self-cleavage came to 0.827.

For the variant G14U G41U, the self-cleavage was determined as 0.276. For the variant G14U G41A, the self-cleavage came out at 0.206. Next, G14C G65U: 0.242; A16C C33U: 0.261; G14U G28C: 0.159. On to G14U G28A, for which the self-cleavage is 0.213. Next, A16C G48C: 0.409. Next, A15G G65A: 0.82.

In the case of A16C U53A, the self-cleavage was 0.16. G14U C66U: the self-cleavage turned out to be 0.436. G14U G58U: the self-cleavage came out at 0.893. Take G14A G41C: the self-cleavage turned out to be 0.179. In the case of G14A G41U, the self-cleavage was 0.264.

On to A15C C29A, for which the self-cleavage turned out to be 0.297. Regarding G14U U20C, the self-cleavage was determined as 0.219.

Turning to A15C G58U, the self-cleavage was found to be 0.936. With A16C C57A, the self-cleavage is 0.129. As to A16C C57G, the self-cleavage was 0.0856. Take A16C C22U: the self-cleavage stood at 0.0688. Next, A16C C45U: 0.339; A16C C45G: 0.272. Next, A16C C45A: 0.264; G14U U21G: 0.147. For A16C C18U, the self-cleavage worked out at 0.128. In the case of G14C A51U, the self-cleavage came out at 0.489. Turning to G14U A15U, the self-cleavage was determined as 0.358.

With G14U A15C, the self-cleavage is 0.415. Turning to G14A G68A, the self-cleavage was 0.866. Consider G14A G68U, for which the self-cleavage worked out at 0.765.

For A15U G25A, the self-cleavage came to 0.121.

With A15U G25C, the self-cleavage was 0.165. For A15G G31U, the self-cleavage is 0.558. In the case of A15G A59C, the self-cleavage was determined as 0.649. Next, A16C C32A: 0.0786; A16C G56A: 0.231; A16C G56C: 0.131. Next, G14C C32U: 0.716. On to A16C G25C, for which the self-cleavage amounted to 0.0921. With A15U U44G, the self-cleavage was determined as 0.713. Consider A15U U44C, for which the self-cleavage is 0.516. A16C C39U: the self-cleavage turned out to be 0.184. Next, A16C C39G: 0.151. Take G14C U55G: the self-cleavage amounted to 0.185. Take A15G C24U: the self-cleavage was 0.87. Next, A15G C24G: 0.405; G14U G37A: 0.197; G14U U26C: 0.478. As to G14C, the self-cleavage is 0.689. G14U: the self-cleavage is 0.855. Regarding A15U C57U, the self-cleavage turned out to be 0.323. Next, A16C G41C: 0.18; A15U A40U: 0.288. Turning to G14A U69A, the self-cleavage worked out at 0.875.

As to G14A U69C, the self-cleavage came to 1. Next, G14A U69G: 0.934; A15C C33U: 0.911. Next, G14U A40C: 0.17; A15U C35A: 0.192; A15U C35G: 0.187. Take A16C U20A: the self-cleavage was found to be 0.0817. On to A16C U20C, for which the self-cleavage was found to be 0.125. As to A15C U46G, the self-cleavage is 0.929.

As to A15C U69G, the self-cleavage turned out to be 1.02. For the variant A15C U69A, the self-cleavage amounted to 0.962.

G14C C18U: the self-cleavage turned out to be 0.155.

For the variant G14C C18A, the self-cleavage amounted to 0.149. As to G14C A23G, the self-cleavage is 0.365. Consider A15C C24G, for which the self-cleavage turned out to be 0.269. Next, A16C U44G: 0.307. Turning to A16C U44A, the self-cleavage was found to be 0.0709.

For A16C G50U, the self-cleavage amounted to 0.306.

A16C G50A: the self-cleavage turned out to be 0.23. For A15G G37C, the self-cleavage came to 0.239. Next, A15G G30C: 0.618; A16C A40G: 0.16; A15G A42U: 0.946. Turning to A15C C35U, the self-cleavage was determined as 0.686. In the case of G14U G17C, the self-cleavage amounted to 0.128. For G14C A59G, the self-cleavage was 0.62.

Turning to G14U A52G, the self-cleavage was 0.851. Next, A15U U36C: 0.557; G14C U61C: 0.241. Take G14U C35A: the self-cleavage came to 0.257. Next, A15C G65U: 0.411.

Turning to A15C G65C, the self-cleavage was found to be 0.277.

Turning to A16C U55C, the self-cleavage came out at 0.165. Next, G14U A51U: 0.739. Turning to A15U G50A, the self-cleavage turned out to be 0.943.

A15C U53C: the self-cleavage worked out at 0.451. Take A15C U53G: the self-cleavage was determined as 0.558. For G14C G48U, the self-cleavage is 0.805. A15G U20C: the self-cleavage was determined as 0.126. Consider A15G U44G, for which the self-cleavage worked out at 0.954.

For A15G U44A, the self-cleavage came out at 0.987. As to A15G U44C, the self-cleavage was 0.99. With A15G U38A, the self-cleavage is 0.877. For A15U U62A, the self-cleavage is 1.01. Next, G14U A16G: 0.504; A15C C32U: 0.853; A16C C34A: 0.165. Regarding A15G G47C, the self-cleavage was determined as 1.05.

A15G G47U: the self-cleavage came to 1.04. Next, A15G A51U: 0.963. Next, A15G A51G: 1.05; A15U G56U: 0.517. With G14C U53A, the self-cleavage was 0.326. Next, G14C U53C: 0.19; A16C A52G: 0.389; G14C C63G: 0.971. As to G14C C57G, the self-cleavage turned out to be 0.203.

With A15U G68U, the self-cleavage was determined as 0.967. Turning to A15U G68A, the self-cleavage worked out at 0.937.

For the variant G14C U43C, the self-cleavage turned out to be 0.399. For G14C U43A, the self-cleavage stood at 0.204. In the case of A15G U64A, the self-cleavage came out at 0.845. For A15G U64C, the self-cleavage amounted to 0.939. Next, A15U A60U: 0.325; G14U C32G: 0.237. On to G14U G56A, for which the self-cleavage stood at 0.539.

As to A15C G41U, the self-cleavage is 0.463. Next, G14U C24A: 0.249; G14C G47C: 0.794; A16C A42G: 0.24. As to G14U U44G, the self-cleavage came to 0.566. Next, G14U U44A: 0.553; A15G G50C: 0.956; A15G G50U: 0.995. Consider A15C U67C, for which the self-cleavage turned out to be 0.888. Next, A15C U67A: 0.916; A15G C29U: 0.358. Take G14A G65A: the self-cleavage was 0.258.

G14A U38G: the self-cleavage worked out at 0.152.

Regarding G14A U38C, the self-cleavage is 0.501. For the variant A15C U49A, the self-cleavage stood at 0.889. Consider A16C G68U, for which the self-cleavage is 0.408. As for G14A U64A, the self-cleavage was 0.444. Take A15G G58A: the self-cleavage was 0.964. Regarding G14C A15U, the self-cleavage was 0.179. As to G14C A15G, the self-cleavage stood at 0.725. For G14U G68A, the self-cleavage stood at 0.908. On to G14U G68C, for which the self-cleavage was 0.779.

As for G14C C54A, the self-cleavage was determined as 0.264.

As to A15U C32U, the self-cleavage was 0.913. On to A15C G17C, for which the self-cleavage amounted to 0.131.
